From publication PMC10163261

Legend:
[1] = biological target: 3.L2 TCR; assay: bond lifetime vs force measurement (method not named for this panel); conditions: solid fitted curve (TCR-pMHC-II model) read at force = 10 pN; TCR on CD4-CD8+ naive T cells; parent: est. 2.3; read off a plot
[2] = biological target: K5:I-E^k (UniProt P04230); assay: BFP force-dependent bond lifetime measurement; conditions: solid fitted curve (TCR-pMHC-II model) read at force = 10 pN; TCR on hybridomas; parent: est. 1.6; read off a plot
UniProt P04230, sequence (P04230 whole entry, looked up): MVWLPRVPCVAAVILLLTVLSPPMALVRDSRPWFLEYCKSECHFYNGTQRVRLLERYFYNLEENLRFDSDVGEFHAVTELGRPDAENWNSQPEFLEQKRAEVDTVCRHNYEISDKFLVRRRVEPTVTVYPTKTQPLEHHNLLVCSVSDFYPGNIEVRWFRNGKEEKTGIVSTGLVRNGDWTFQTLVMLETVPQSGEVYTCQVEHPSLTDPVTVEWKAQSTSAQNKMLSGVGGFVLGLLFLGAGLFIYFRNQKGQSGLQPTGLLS

Substance | other: bond lifetime [1] | other: bond lifetime [2]
hybrid 2B4 TCR with its mouse Vαβ fused with the Cαβ of the human LC13 (WT) (from UniProt P01848) β:G182A; β:K183A |  | 1.3 s
hybrid 2B4 TCR with its mouse Vαβ fused with the Cαβ of the human LC13 (WT) (from UniProt P01848) β:H221A; β:N222A |  | 0.38 s
hybrid 2B4 TCR with its mouse Vαβ fused with the Cαβ of the human LC13 (WT) (from UniProt P01848) β:N222A; β:P223A |  | 2.2 s

Now from value to substance:

other: bond lifetime [1] | other: bond lifetime [2] | Substance
1.1 s |  | Hb:I-Ek T72
 | 0.15 s | hybrid 2B4 TCR with its mouse Vαβ fused with the Cαβ of the human LC13 (WT) (from UniProt P01848) β:N225A; β:H226A
